Laboratory results published in US20030186334A1, “KTS-disintegrins” (Temple University - Of the Commonwealth System of Higher …, priority 2001, published 2003).
pIC50: −log10 of the molar value.

What was measured:
α1β1 integrin [1] = target: T1, α1β1 integrin (Homo sapiens, UniProt P05556+P56199); test: adhesion of HS.939T cells to collagen IV; type: cell-based; settings: α1β1, Coll IV
T1 construct: expressed in transfected cells; host or cells: α1K562 cells

α5β1 integrin = target: T2, α5β1 integrin (Homo sapiens, UniProt P05556+P08648); test: adhesion of K562 cells to fibronectin; type: cell-based
T2 construct: endogenous in cells; host or cells: K562 cells
Experimental: (§1) Adhesive ligands for the selected integrins consisted of collagen IV (0.2 μg/well), collagen I, fibronectin, or vascular cell adhesion molecule-1 (VCAM-1). Adhesive ligands in 0.02 M acetic acid were immobilized overnight at 4° C. on a 96-well plate. Plates were then blocked with 1% (w/v) BSA (bovine serum albumin) in Hank's Balanced Salt Solution (HBSS) containing 3 mM Mg^2+ at room temperature for 1-2 hours to prevent cells from non-specifically binding to the plates. α1K562, α2K562, K562, A5, and Jurkat cells expressing the α1β1, α2β1, α5β1, αIIbβ3, and α4β1 integrins respectively were labeled by incubation with 12.5 μM 5-chloromethylfluorescein diacetate (CMFDA) in HBSS for 15 minutes at 37° C. CMFDA labeled cells were then pelleted, washed and resuspended in HBSS buffer containing 3 mM Mg^2+ and 1% (w/v) BSA. […] Plates were then incubated at 37° C. for 30 minutes as indicated in Table 5 and washed three times with HBSS containing 3 mM Mg^2+ and 1% (w/v) BSA to remove unbound cells. Bound cells were lysed using 0.5% (v/v) Triton X-100 in H2O. Fluorescent CMFDA released by lysis of adherent cells in a given well was read using a Cytofluor 2350 fluorescence plate reader.
(§2) The effect of obtustatin, viperisrastatin, echistatin, and eristostatin on the binding of selected integrins to their adhesive ligands was evaluated using the cell adhesion assay described in Example 6. The integrin-expressing cells, integrins and corresponding adhesive ligands, and the results of the cell adhesion assay are shown in Table 6.

α4β1 integrin = target: T3, α4β1 integrin (Homo sapiens, UniProt P05556+P13612); test: adhesion of Jurkat cells to VCAM-1; type: cell-based; settings: α4β1, VCAM-1
T3 construct: endogenous in cells; host or cells: Jurkat cells
Experimental: as §1, §2

α9β1 integrin = target: T4, α9β1 integrin (Homo sapiens, UniProt P05556+Q13797); test: adhesion of SW480α9 cells to VCAM-1; type: cell-based; settings: α9β1, VCAM-1
T4 construct: expressed in transfected cells; host or cells: SW480α9 cells

αvβ3 integrin = target: T5, αvβ3 integrin (Homo sapiens, UniProt P05106+P06756); test: adhesion of JY cells to vitronectin; type: cell-based; settings: αvβ3, VN
T5 construct: endogenous in cells; host or cells: JY cells

α1β1 integrin [2] = target: T1, α1β1 integrin; test: adhesion of P1E6 blocked MV3 cells to immobilized collagen IV; type: cell-based; settings: only α1β1 mediates adhesion
Experimental: The α1β1 integrin specific inhibitory effect of obtustatin was confirmed using human melanoma MV3 cells. MV3 cells express both the α1β1 and α2β1 integrins. MV3 cells adhere strongly to collagen IV through α1β1 and α2β1 integrin-mediated interactions.
Collagen IV (0.2 μg/well) in 0.02 M acetic acid was immobilized overnight at 4° C. on a 96-well plate. Plates were then blocked with 1% (w/v) BSA (bovine serum albumin) in Hank's Balanced Salt Solution (HBSS) containing 3 mM Mg^2+ at room temperature for 1-2 hours to prevent cells from non-specifically binding to the plates. α1K562 cells were labeled by incubation with 12.5 μM 5-chloromethylfluorescein diacetete (CMFDA) in HBSS for 15 minutes at 37° C. CMFDA labeled MV3 cells were then pelleted, washed and resuspended in HBSS buffer containing 3mM Mg^2+ and 1% (w/v) BSA. 1×10^5 cells were then added to each well in the presence (10 μg/ml) or absence of the α1 integrin subunit specific AJH10 mAb and α2 integrin subunit specific P1E6 mAb as indicated in FIG. 5. Obtustatin was added at the concentrations indicated in FIG. 5 simultaneously with the mAbs. The plates were then incubated at 37° C. for 30 minutes and washed three times with HBSS containing 3 mM Mg^2+ and 1% (w/v) BSA to remove unbound cells. […] Fluorescent CMFDA released by lysis of adherent cells in a given well was read using a Cytofluor 2350 fluorescence plate reader.

HMVECs = test: endothelial cell tube formation assay on Matrigel; type: cell-based, human; settings: 60 μM, 24 hours
Experimental: An endothelial cell tube formation assay was performed to assess the anti-angiogenic effect of obtustatin in vitro as follows. Twenty-four well plates were coated with a 1:2 dilution of Matrigel™ in EBM-2 medium, which was polymerized by incubation for 1 hour at 37° C. HMVECs (1.2×10^5 cells per well) were added onto the polymerized Matrigel™ (BD Biosciences, Lexington, Ky.) in EBM-2 medium, in the absence or presence of 60 μM obtustatin. The plates were incubated for 24 hours at 37° C., and analyzed for the extent of tube formation by observation with an inverted microscope, using a magnification of 10× ocular and 10× objective.

T2 sequence (P08648 42-894 limits assumed): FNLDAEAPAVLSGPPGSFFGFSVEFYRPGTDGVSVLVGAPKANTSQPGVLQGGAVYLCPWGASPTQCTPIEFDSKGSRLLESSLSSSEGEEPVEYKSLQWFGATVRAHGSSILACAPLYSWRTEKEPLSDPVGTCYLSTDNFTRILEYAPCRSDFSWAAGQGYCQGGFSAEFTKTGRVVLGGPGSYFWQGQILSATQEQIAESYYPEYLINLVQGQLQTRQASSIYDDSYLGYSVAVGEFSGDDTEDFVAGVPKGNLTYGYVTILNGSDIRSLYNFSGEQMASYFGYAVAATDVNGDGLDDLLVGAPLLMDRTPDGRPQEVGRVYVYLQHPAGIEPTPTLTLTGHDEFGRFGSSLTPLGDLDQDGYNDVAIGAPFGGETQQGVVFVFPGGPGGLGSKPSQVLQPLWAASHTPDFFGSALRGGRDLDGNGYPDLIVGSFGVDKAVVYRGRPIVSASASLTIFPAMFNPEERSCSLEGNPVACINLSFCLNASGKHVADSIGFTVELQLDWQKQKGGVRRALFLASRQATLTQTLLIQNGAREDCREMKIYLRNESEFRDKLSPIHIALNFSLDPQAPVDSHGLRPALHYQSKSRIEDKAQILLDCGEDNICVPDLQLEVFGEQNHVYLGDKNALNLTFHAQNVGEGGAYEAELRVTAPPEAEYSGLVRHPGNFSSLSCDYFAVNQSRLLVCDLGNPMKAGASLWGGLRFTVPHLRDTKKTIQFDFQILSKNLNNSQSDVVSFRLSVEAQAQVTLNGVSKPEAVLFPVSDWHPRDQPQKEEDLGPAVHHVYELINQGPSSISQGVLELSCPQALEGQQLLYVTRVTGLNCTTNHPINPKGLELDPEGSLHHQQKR
T2 sequence (P08648 895-1049 partner limits assumed): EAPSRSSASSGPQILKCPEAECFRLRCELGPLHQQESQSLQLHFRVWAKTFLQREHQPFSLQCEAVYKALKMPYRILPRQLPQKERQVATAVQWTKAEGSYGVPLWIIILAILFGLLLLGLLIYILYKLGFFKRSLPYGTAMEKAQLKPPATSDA
T2 sequence (P05556 21-798): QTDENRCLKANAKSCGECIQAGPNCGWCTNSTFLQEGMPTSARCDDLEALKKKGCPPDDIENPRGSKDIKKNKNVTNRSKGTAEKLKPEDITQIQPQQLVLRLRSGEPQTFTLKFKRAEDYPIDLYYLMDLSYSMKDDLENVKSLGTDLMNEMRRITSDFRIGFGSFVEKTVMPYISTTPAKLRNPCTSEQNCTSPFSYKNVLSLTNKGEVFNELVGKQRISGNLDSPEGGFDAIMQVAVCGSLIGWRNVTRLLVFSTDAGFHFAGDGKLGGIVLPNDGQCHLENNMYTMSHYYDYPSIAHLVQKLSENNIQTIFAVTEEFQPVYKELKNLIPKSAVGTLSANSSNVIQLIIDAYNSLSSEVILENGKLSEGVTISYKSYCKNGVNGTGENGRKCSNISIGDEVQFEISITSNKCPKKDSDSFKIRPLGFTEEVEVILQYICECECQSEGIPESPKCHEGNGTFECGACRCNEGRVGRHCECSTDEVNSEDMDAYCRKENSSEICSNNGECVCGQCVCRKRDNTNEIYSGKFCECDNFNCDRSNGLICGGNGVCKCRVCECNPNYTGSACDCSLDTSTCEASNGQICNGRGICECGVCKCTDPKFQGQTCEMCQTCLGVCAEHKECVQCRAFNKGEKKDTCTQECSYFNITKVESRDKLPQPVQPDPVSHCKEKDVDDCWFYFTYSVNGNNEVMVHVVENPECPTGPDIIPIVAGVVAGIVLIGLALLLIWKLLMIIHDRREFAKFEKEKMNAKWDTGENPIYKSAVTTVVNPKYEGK
T1 sequence (P56199 29-1179): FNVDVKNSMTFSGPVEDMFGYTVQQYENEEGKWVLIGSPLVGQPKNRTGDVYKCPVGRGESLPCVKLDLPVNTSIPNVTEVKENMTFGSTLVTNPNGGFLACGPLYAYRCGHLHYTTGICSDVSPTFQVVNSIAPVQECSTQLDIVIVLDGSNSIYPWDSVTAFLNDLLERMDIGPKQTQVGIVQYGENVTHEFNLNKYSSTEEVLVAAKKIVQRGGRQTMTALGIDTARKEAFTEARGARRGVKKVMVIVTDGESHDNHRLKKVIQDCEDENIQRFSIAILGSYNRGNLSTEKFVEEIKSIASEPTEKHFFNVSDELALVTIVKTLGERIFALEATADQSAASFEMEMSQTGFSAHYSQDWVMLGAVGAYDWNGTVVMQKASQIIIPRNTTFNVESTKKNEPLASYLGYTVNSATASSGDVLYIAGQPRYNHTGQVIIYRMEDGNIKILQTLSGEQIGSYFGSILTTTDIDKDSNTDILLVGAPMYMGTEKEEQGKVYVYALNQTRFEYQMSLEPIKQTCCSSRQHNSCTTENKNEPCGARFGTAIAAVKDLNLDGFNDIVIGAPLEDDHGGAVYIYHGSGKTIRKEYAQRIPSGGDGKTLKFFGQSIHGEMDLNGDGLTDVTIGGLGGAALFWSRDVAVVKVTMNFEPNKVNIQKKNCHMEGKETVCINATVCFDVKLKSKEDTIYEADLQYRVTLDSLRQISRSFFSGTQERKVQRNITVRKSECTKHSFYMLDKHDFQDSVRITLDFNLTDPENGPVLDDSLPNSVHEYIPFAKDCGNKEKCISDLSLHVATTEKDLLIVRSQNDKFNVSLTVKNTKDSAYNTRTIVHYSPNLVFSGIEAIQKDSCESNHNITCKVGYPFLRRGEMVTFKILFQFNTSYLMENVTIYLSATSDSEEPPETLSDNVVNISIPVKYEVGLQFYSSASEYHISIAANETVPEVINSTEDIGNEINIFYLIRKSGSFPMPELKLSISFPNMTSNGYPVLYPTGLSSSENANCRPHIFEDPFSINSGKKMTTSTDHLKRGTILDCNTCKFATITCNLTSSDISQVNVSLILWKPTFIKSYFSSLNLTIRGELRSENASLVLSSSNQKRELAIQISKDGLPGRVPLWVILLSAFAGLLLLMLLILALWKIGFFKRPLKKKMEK
T1 sequence (P05556 21-798): as the sequence (P05556 21-798) above
T5 sequence (P06756 31-889 limits assumed): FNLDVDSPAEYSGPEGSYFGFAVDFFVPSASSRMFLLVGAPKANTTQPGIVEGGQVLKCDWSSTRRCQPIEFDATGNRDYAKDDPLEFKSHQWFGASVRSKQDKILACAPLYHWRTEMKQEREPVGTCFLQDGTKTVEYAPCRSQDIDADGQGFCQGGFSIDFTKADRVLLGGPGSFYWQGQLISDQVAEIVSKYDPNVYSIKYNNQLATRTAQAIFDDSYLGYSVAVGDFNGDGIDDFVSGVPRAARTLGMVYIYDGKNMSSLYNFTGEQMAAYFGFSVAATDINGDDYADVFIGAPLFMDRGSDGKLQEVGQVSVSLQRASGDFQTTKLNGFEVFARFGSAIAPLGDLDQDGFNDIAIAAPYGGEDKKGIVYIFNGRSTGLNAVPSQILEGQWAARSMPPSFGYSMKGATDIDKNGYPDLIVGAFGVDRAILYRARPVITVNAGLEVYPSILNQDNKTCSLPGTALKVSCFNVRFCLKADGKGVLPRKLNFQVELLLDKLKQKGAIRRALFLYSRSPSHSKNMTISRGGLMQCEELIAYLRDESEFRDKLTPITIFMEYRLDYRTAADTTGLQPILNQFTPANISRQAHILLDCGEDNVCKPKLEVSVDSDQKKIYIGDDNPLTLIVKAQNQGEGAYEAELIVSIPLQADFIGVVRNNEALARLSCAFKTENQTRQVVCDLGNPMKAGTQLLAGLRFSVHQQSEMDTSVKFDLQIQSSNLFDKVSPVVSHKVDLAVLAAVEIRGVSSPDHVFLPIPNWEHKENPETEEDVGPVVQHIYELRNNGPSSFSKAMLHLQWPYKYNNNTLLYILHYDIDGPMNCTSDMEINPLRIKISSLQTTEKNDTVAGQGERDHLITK
T5 sequence (P06756 891-1048 partner limits assumed): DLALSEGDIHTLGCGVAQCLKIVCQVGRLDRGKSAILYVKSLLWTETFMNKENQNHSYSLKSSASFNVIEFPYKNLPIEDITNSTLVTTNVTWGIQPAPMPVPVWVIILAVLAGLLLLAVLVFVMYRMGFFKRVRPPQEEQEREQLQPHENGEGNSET
T5 sequence (P05106 27-788): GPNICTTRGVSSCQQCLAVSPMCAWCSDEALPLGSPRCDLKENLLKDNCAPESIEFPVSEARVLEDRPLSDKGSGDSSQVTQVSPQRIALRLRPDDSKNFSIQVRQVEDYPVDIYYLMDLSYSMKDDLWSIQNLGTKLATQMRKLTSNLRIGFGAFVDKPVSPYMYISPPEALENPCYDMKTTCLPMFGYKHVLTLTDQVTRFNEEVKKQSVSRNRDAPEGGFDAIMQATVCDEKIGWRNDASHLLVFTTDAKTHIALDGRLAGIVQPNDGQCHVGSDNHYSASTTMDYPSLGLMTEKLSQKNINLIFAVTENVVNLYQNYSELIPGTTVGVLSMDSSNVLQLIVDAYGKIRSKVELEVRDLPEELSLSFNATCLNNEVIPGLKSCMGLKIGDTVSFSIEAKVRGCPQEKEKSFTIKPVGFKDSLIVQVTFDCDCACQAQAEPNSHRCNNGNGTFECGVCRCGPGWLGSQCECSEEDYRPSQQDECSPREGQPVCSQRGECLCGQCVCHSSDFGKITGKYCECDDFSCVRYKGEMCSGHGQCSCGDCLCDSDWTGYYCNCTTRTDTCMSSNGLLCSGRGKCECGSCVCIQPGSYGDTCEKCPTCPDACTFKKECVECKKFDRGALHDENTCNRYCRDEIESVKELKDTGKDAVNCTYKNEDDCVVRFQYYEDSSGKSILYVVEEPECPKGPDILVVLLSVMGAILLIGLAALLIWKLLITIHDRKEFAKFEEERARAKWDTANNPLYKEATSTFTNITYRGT

For “Obtustatin (CTTGPCCRQCKLKPAGTTCWKTSLTSHYCTGKSCDCPLYPG)”, the pIC50 (α1β1 integrin [1]) was 10.00, the pIC50 (α5β1 integrin) was under 5.00 and the pIC50 (α4β1 integrin) was under 5.00. For the same substance, the pIC50 (α9β1 integrin) was under 5.00, the pIC50 (αvβ3 integrin) was under 5.00 and the “inhibition of adhesion of MV3 cells to collagen IV” value (α1β1 integrin [2]) was “inhibited by significantly lower obtustatin concentrations”. The “formation of HMVEC tubes on Matrigel” value (HMVECs) was “completely abolished”.
